Data on one substance can be found in PMC10769878.

This experiment addresses phi3T_93 (Bacillus subtilis phage phi3T). As to the kind of experiment: SEC-MALS; 20 µl at 1 mg/ml on Shodex KW-402.5-4F, 100 mM HEPES pH 7.5, 250 mM NaCl, 0.3 ml/min. (In general: In gel filtration, larger molecules generally elute earlier.)

Regarding phi3T_93 (natural protein), the stoichiometry N (in general, the number of molecules, sites or subunits per partner or assembly) is 2.
